Source: patent publication US20230203156A1 (published 2023)
Each block holds one binder with its values, some of them ahead of it.

Assays:
[1] = target: T1, human MDR1 (multidrug resistance protein 1) (UniProt P08183 1-1280); test: FACS binding, 293T-hB1 cells
[2] = target: cynomolgus MDR1 (Macaca fascicularis); test: FACS binding, 293T-cB1 cells
human CD47 [3] = target: T2, human CD47 (human, UniProt Q08722 19-323); test: FACS binding, C6 cells expressing human CD47
cynomolgus CD47 = target: T3, cynomolgus CD47 (cynomolgus, UniProt A0A5F8AK49 19-323); test: FACS binding, C6-cKT14 cells
T3 chain: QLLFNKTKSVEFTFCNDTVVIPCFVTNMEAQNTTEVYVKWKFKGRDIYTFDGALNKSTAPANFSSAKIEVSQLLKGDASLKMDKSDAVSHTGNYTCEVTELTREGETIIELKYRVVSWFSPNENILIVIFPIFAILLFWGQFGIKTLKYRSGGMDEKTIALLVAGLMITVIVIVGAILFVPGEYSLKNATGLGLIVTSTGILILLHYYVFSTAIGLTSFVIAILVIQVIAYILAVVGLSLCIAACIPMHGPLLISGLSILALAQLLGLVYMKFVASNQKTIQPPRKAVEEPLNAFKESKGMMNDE

[4] = target: T1, human MDR1 (multidrug resistance …); test: FACS binding, 293T cells expressing human MDR1
human CD47 [5] = target: T2, human CD47; test: cell binding (flow cytometry, C6 cells)

cynomolgus MDR1 (Macaca fascicularis), sequence (chain, as listed by the source): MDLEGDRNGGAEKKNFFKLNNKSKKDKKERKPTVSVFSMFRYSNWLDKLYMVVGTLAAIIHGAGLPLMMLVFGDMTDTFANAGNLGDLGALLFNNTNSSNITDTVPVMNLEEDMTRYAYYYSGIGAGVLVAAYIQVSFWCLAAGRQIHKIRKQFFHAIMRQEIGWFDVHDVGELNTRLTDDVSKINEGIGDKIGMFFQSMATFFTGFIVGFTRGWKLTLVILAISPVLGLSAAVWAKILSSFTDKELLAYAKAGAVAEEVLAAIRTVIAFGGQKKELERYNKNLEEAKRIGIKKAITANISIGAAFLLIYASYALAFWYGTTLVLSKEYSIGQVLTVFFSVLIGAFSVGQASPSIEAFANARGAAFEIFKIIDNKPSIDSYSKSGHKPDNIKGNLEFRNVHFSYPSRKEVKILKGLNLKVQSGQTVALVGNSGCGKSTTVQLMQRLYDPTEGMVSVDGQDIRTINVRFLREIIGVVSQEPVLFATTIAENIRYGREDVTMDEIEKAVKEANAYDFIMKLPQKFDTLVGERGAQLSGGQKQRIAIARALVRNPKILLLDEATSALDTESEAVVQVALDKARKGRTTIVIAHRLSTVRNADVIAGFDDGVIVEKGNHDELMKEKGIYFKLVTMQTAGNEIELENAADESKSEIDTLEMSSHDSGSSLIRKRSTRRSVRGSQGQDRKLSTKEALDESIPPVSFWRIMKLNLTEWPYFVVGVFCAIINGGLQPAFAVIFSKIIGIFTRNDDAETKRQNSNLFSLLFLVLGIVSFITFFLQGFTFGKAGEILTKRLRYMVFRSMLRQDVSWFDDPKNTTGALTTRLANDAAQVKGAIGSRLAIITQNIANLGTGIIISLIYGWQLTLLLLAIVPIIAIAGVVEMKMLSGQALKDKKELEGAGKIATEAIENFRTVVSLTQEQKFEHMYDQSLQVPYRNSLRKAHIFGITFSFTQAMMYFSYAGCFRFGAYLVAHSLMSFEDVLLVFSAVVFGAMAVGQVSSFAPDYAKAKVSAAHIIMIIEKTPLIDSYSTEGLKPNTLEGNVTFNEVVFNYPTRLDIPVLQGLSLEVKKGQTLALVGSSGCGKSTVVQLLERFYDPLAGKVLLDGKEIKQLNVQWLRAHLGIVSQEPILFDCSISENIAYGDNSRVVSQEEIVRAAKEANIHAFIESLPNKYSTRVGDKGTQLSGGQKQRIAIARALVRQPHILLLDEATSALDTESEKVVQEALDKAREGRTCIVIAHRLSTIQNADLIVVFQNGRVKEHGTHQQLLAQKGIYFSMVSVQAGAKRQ

B1: B1.261 (antibody, V domains shown)
VH: QVQLKESGPGLVAPSQSLSITCTVSGFSLTSYGVHWVRQPPGKGLEWLVVIWSDGSTTYNSALKSRLSISKDNSKSQVFLKMNSLQIDDTAMYYCARHGRWLLQRGGAMDYWGQGTSVTVSS
VL: DVVMTQAPKFMSTSVGDRVSVTCRASQNVGSYIAWYQQKLGQSPKALIYSASYRCSGVPDRFTGSGAGTDFTLTIRNVQSEDLAEYFCQQYNSYPLTFGGGTKLEIK
Kd [1]: 188 nM | Kd [2]: 371 nM

B2: B1.261.huH2(VH3)-huL1 (antibody, V domains shown)
VH: EVQLVESGGGLIQPGGSLRLSCAVSGFSLTSYGVHWVRQPPGKGLEWLVVIWSDGSTTYNSALKSRLTISKDNSKNTVYLQMNSLRAEDTAVYYCARHGRWLLQRGGAMDYWGQGTMVTVSS
VL: DVQMTQSPSSLSASVGDRVTITCRASQNVGSYIAWYQQKPGKSPKALIYSASYRSSGVPSRFSGSGAGTDFTLTISSLQPEDFATYFCQQYNSYPLTFGGGTKLEIK
Kd [1]: 50 nM | Kd [2]: 114 nM

B5: 15D3DD/KT14KK/225v1 (antibody)
chain 1: EVKVVESGGVLVRPGGSLKLSCAASGFTFSRYTMSWVRQTPEKRLEWVATISSGGGNTYYPDSVKGRFTVSRDNAMSSLYLQMSSLRSEDTALYYCARYGAGDAWFAYWGQGTLVTVSS
chain 2: QVQLVQSGAEVKKPGASVKVSCKASGYTFTNYNMHWVRQAPGQRLEWMGTIYPGNDDTSYNQKFKDRVTITADTSASTAYMELSSLRSEDTAVYYCARGGYRAMDYWGQGTLVTVSS
chain 3: DVVMTQTPLSLPVSLGDQASISCRFSQSIVHSNGNTYLEWYLQKPGQSPKLLIYKVSNRFFGVPDRFSGSGSGTDFTLKISRVEAEDLGVYYCFQASHFPRTFGGGTKLEIK
EC50 (cynomolgus CD47): 37 nM

B7: B1.198 (antibody, V domains shown)
VH: EVQLVESGGALVKPGGSLKLSCAASGFTFSNYAMSWVRQTPEKRLEWVATISSGGSYTYYPDSVKGRFTISRDNAKNTLYLQMSSLRSEDTALYYCAKYSNYGRFAYWGQGTLVTVSA
VL: DVVMTQTPLSLPVSLGDQASISCRSSQSIVDSNGNTYLEWYLQKPGQSPKLLIYKVSNRFFGVPDRFSGSGSGTDFTLKISRVEAEDLGVYYCFQGSHVPYTFGGGTKLEIK
EC50 [4]: 14.8 nM

B8: 15D3DD KT14KK B1.89v1 LC (bispecific antibody)
heavy 1: not shown
heavy 2: not shown
VL: DVLMTQTPLSLPVSLGDQASISCRSSQTIVHSNGNTYLEWYLQKPGQSPKLLIYKVSKRFSGVPDRFSGSGSGTDFTLKISRVEAEDLGVYYCFQASHFPRTFGGGTKLEIK
EC50 (cynomolgus CD47): 21 nM

B9: 15D3DD/KT14KK/B1.27 (antibody)
chain 1: EVKVVESGGVLVRPGGSLKLSCAASGFTFSRYTMSWVRQTPEKRLEWVATISSGGGNTYYPDSVKGRFTVSRDNAMSSLYLQMSSLRSEDTALYYCARYGAGDAWFAYWGQGTLVTVSS
chain 2: QVQLVQSGAEVKKPGASVKVSCKASGYTFTNYNMHWVRQAPGQRLEWMGTIYPGNDDTSYNQKFKDRVTITADTSASTAYMELSSLRSEDTAVYYCARGGYRAMDYWGQGTLVTVSS
chain 3: DVLLTQTPLSLPVSLGDQASISCRSSQNIVHSTGNTYLDWYLQKPGQSPKLLIYKVSNRFSGVPDRFSGSGSGTDFTLKISRVEAEDLGVYFCFQGSHIPRTFGGGTKLEIK
EC50 (cynomolgus CD47): 36 nM

B10: B1.99 (antibody, V domains shown)
VH: EVQLVESGGALVKPGGSLKLSCAASGFTFSNYAMSWVRQTPERRLEWVATISSGGSYTYYPDSVKGRFTISRDNAKNTLYLQMSSLISEDTALYYCTRGYGNFAWFAYWGHGTLVTVSA
VL: DVVMTQTPLSLPVSLGDQVSISCRSSQSIVHSYGSTYLEWYLQKPGQSPKLLIYKVSNRFSGVPDRFSGSGSGTDFTLKISRVEAEDLGVYFCFQGSHIPYTFGGGTKLELK
EC50 [4]: 88.2 nM

B11: B1.85 (antibody, V domains shown)
VH: EVQLVESGGALVKPGGSLKLSCAASGFTFSNYGVSWVRQTPEKRLEWVATISSSGSYTYYPDIVRGRFTISRDNAKNTLYLQMSSLRSEDTAFYYCARGYGNFAWFAYWGQGTLVTVSA
VL: DIQMTQSPLSLPVSLGDQASISCRSSQSIVHSTGNTYLEWYLQKPGQSPKLLIYKVSNRFSGVPDRFSGSGSGTDFTLKINRVEAEDLGVYYCFQGSHVPYTFGGGTKLEIK
EC50 [4]: 9.2 nM

Continued, values first:

EC50 (human CD47 [3]): 1.4 nM
B3: KT14.5F9hu scFv-B1.28.hu13 (bispecific antibody)
scFv: not shown
heavy: EVQLVESGGGLVKPGGSLRLSCAASGFTFGLYTMSWVRQAPGKGLEWVATISSGGSNTYYPDSVKGRFTISRDNAKNSLYLQMNSLRAEDTAVYYCARYYRYDAWFAYWGQGTLVTVSSASTKGPSVFPLAPSSKSTSGGTAALGCLVKDYFPEPVTVSWNSGALTSGVHTFPAVLQSSGLYSLSSVVTVPSSSLGTQTYICNVNHKPSNTKVDKRVEPKSCDKTHTCPPCPAPELLGGPSVFLFPPKPKDTLMISRTPEVTCVVVDVSHEDPEVKFNWYVDGVEVHNAKTKPREEQYNSTYRVVSVLTVLHQDWLNGKEYKCKVSNKALPAPIEKTISKAKGQPREPQVCTLPPSREEMTKNQVSLSCAVKGFYPSDIAVEWESNGQPENNYKTTPPVLDSDGSFFLVSKLTVDKSRWQQGNVFSCSVMHEALHNHYTQKSLSLSPGK
light: EVVLTQSPATLSLSPGERATLSCRSSQNIVHSTGNTYLDWYQQKPGQSPRLLIYKVSNRFSGVPARFSGSGSGTDFTLTISSLEPEDFAVYYCFQGSHIPRTFGGGTKLEIKRTVAAPSVFIFPPSDEQLKSGTASVVCLLNNFYPREAKVQWKVDNALQSGNSQESVTEQDSKDSTYSLSSTLTLSKADYEKHKVYACEVTHQGLSSPVTKSFNRGEC

EC50 (human CD47 [3]): 1.5 nM
B4: KT14.B6H12hu scFv-B1.28.hu13 (bispecific antibody)
scFv: not shown
heavy: EVQLVESGGGLVKPGGSLRLSCAASGFTFGLYTMSWVRQAPGKGLEWVATISSGGSNTYYPDSVKGRFTISRDNAKNSLYLQMNSLRAEDTAVYYCARYYRYDAWFAYWGQGTLVTVSSASTKGPSVFPLAPSSKSTSGGTAALGCLVKDYFPEPVTVSWNSGALTSGVHTFPAVLQSSGLYSLSSVVTVPSSSLGTQTYICNVNHKPSNTKVDKRVEPKSCDKTHTCPPCPAPELLGGPSVFLFPPKPKDTLMISRTPEVTCVVVDVSHEDPEVKFNWYVDGVEVHNAKTKPREEQYNSTYRVVSVLTVLHQDWLNGKEYKCKVSNKALPAPIEKTISKAKGQPREPQVCTLPPSREEMTKNQVSLSCAVKGFYPSDIAVEWESNGQPENNYKTTPPVLDSDGSFFLVSKLTVDKSRWQQGNVFSCSVMHEALHNHYTQKSLSLSPGK
light: EVVLTQSPATLSLSPGERATLSCRSSQNIVHSTGNTYLDWYQQKPGQSPRLLIYKVSNRFSGVPARFSGSGSGTDFTLTISSLEPEDFAVYYCFQGSHIPRTFGGGTKLEIKRTVAAPSVFIFPPSDEQLKSGTASVVCLLNNFYPREAKVQWKVDNALQSGNSQESVTEQDSKDSTYSLSSTLTLSKADYEKHKVYACEVTHQGLSSPVTKSFNRGEC

EC50 (cynomolgus CD47): 44 nM
B6: 15D3DD/KT14KK/VL6.CDR3mod (antibody)
chain 1: EVKVVESGGVLVRPGGSLKLSCAASGFTFSRYTMSWVRQTPEKRLEWVATISSGGGNTYYPDSVKGRFTVSRDNAMSSLYLQMSSLRSEDTALYYCARYGAGDAWFAYWGQGTLVTVSS
chain 2: QVQLVQSGAEVKKPGASVKVSCKASGYTFTNYNMHWVRQAPGQRLEWMGTIYPGNDDTSYNQKFKDRVTITADTSASTAYMELSSLRSEDTAVYYCARGGYRAMDYWGQGTLVTVSS
chain 3: DVLMTQTPLSLPVSLGDQASISCRSSQSLVHSNGNTYLEWYLQKPGQSPKLLIYKVSNRFSGVPDRFSGSGSGTDFTLKISRVEAEDLGVYYCFQGSHFPRTFGGGTKLEIKRTVAAPSVFIF

EC50 (human CD47 [5]): 2.7 nM
B12: KT14.5F9hu scFv-B1.261.hu1 (bispecific antibody)
scFv: not shown
heavy: EVQLQESGPGLVKPSETLSLTCTVSGFSLTSYGVHWVRQPPGKGLEWLVVIWSDGSTTYNSALKSRLTISKDNSKNQVSLKLSSVTAADTAVYYCARHGRWLLQRGGAMDYWGQGTMVTVSSASTKGPSVFPLAPSSKSTSGGTAALGCLVKDYFPEPVTVSWNSGALTSGVHTFPAVLQSSGLYSLSSVVTVPSSSLGTQTYICNVNHKPSNTKVDKRVEPKSCDKTHTCPPCPAPELLGGPSVFLFPPKPKDTLMISRTPEVTCVVVDVSHEDPEVKFNWYVDGVEVHNAKTKPREEQYNSTYRVVSVLTVLHQDWLNGKEYKCKVSNKALPAPIEKTISKAKGQPREPQVCTLPPSREEMTKNQVSLSCAVKGFYPSDIAVEWESNGQPENNYKTTPPVLDSDGSFFLVSKLTVDKSRWQQGNVFSCSVMHEALHNHYTQKSLSLSPGK
light: DVQMTQSPSSLSASVGDRVTITCRASQNVGSYIAWYQQKPGKSPKALIYSASYRSSGVPSRFSGSGAGTDFTLTISSLQPEDFATYFCQQYNSYPLTFGGGTKLEIKRTVAAPSVFIFPPSDEQLKSGTASVVCLLNNFYPREAKVQWKVDNALQSGNSQESVTEQDSKDSTYSLSSTLTLSKADYEKHKVYACEVTHQGLSSPVTKSFNRGEC

EC50 (human CD47 [5]): 26 nM
B13: KT14.B6H12hu scFv-B1.261.hu1 (bispecific antibody)
scFv: not shown
heavy: EVQLQESGPGLVKPSETLSLTCTVSGFSLTSYGVHWVRQPPGKGLEWLVVIWSDGSTTYNSALKSRLTISKDNSKNQVSLKLSSVTAADTAVYYCARHGRWLLQRGGAMDYWGQGTMVTVSSASTKGPSVFPLAPSSKSTSGGTAALGCLVKDYFPEPVTVSWNSGALTSGVHTFPAVLQSSGLYSLSSVVTVPSSSLGTQTYICNVNHKPSNTKVDKRVEPKSCDKTHTCPPCPAPELLGGPSVFLFPPKPKDTLMISRTPEVTCVVVDVSHEDPEVKFNWYVDGVEVHNAKTKPREEQYNSTYRVVSVLTVLHQDWLNGKEYKCKVSNKALPAPIEKTISKAKGQPREPQVCTLPPSREEMTKNQVSLSCAVKGFYPSDIAVEWESNGQPENNYKTTPPVLDSDGSFFLVSKLTVDKSRWQQGNVFSCSVMHEALHNHYTQKSLSLSPGK
light: DVQMTQSPSSLSASVGDRVTITCRASQNVGSYIAWYQQKPGKSPKALIYSASYRSSGVPSRFSGSGAGTDFTLTISSLQPEDFATYFCQQYNSYPLTFGGGTKLEIKRTVAAPSVFIFPPSDEQLKSGTASVVCLLNNFYPREAKVQWKVDNALQSGNSQESVTEQDSKDSTYSLSSTLTLSKADYEKHKVYACEVTHQGLSSPVTKSFNRGEC
